Legend:
human CD20 (human) [1] = molecular target: human CD20 (human) (UniProt P11836); test: Scatchard analysis, iodinated RITUXAN with unlabeled RITUXAN on adherent CHO clone 6D7 cells expressing human CD20 (n=3)
human CD20 (human) [2] = molecular target: human CD20 (human) (UniProt P11836); test: cell ELISA on CD20-transfected CHO clone 1H6, suspension format, 300,000 cells/well
human CD20 (human) [3] = molecular target: human CD20 (human) (UniProt P11836); test: Scatchard analysis, iodinated RITUXAN with unlabeled RITUXAN on CHO clone 2H3 cells in suspension (n=3)
human CD20 (human) [4] = molecular target: human CD20 (human) (UniProt P11836); test: cell ELISA on CD20-transfected CHO clone 2H3, suspension format, 300,000 cells/well
human CD20 (human) [5] = molecular target: human CD20 (human) (UniProt P11836); test: Scatchard analysis, iodinated RITUXAN with unlabeled RITUXAN on adherent CHO clone C12M cells expressing human CD20 (n=3)
human CD20 (human) [6] = molecular target: human CD20 (human) (UniProt P11836); test: Scatchard analysis, iodinated RITUXAN with unlabeled RITUXAN on adherent CHO clone 4H10 cells expressing human CD20 (n=3)
human CD20 (human) [7] = molecular target: human CD20 (human) (UniProt P11836); test: cell ELISA on CD20-transfected CHO clone C12M, suspension format, 300,000 cells/well
human CD20 (human) [8] = molecular target: human CD20 (human) (UniProt P11836); test: Scatchard analysis, iodinated RITUXAN with unlabeled RITUXAN on WIL2 cells in suspension (n=3)

Sequence of human CD20 (human) (P11836 whole entry): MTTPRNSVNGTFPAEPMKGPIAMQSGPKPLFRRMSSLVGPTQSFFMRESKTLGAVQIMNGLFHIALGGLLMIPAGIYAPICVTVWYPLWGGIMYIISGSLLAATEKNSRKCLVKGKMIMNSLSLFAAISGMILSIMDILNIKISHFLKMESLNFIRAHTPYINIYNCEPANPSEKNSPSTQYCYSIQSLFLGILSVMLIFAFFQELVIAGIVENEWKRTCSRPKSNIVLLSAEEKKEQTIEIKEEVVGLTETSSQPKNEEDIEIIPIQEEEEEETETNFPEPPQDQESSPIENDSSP

Kd (human CD20 (human) [1]): 5.97 nM
EC50 (read off the curve) (human CD20 (human) [2]): 0.2 µg/mL
Kd (human CD20 (human) [3]): 8.57 nM
EC50 (read off the curve) (human CD20 (human) [4]): 0.2 µg/mL
Kd (human CD20 (human) [5]): 13.7 nM
Kd (human CD20 (human) [6]): 5.5 nM
EC50 (read off the curve) (human CD20 (human) [7]): 0.2 µg/mL
Kd (human CD20 (human) [8]): 3.91 nM
Substance: RITUXAN® (rituximab) (antibody)

From patent US20070015228A1
